Measured values as given in publication PMC5906681, “BRI1 and BAK1 interact with G proteins and regulate sugar-responsive growth and development in Arabidopsis” (Nature Communications, 2018).

target: T1, GST-fused BRI1 kinase domain (Arabidopsis, UniProt O22476 814-1196); test: pull-down; about 15 μg GST fusion with about 30 μg MBP fusion in 900 μL TGH buffer (10% glycerol, 1% Triton X-100, 1.5 mM MgCl2, 150 mM NaCl, 1 mM EGTA, 50 mM HEPES, pH 7.5); 30 μL GST beads, about 1 h; immunoblot with anti-MBP and anti-GST; settings: both partners purified
T1 construct: BRASSINOSTEROID … 1 (BRI1), Arabidopsis, kinase domain, residues 814-1196; also called GST-BRI1-KD; BRI1-KD; source: E. coli (pGEX-4T-1); not shown: GST, N-terminal, kept
T1 sequence (looked up): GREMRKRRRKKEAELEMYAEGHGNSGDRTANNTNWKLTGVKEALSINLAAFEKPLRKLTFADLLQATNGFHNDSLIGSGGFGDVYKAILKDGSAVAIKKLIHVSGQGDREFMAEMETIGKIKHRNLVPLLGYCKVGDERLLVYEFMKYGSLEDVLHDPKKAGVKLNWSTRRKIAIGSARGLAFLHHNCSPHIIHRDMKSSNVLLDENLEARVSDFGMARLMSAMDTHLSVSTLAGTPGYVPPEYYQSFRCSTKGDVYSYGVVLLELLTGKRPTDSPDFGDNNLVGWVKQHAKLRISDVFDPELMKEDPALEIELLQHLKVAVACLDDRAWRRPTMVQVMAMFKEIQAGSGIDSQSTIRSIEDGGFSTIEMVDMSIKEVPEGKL

| Binder | binding result |
| --- | --- |
| MBP-AGB1 (natural protein, Arabidopsis, UniProt P49177 1-377, looked up, AGB1, Arabidopsis G protein beta subunit; Cloned into the EcoR I and Pst I sites of pMAL-c2; also called G protein beta subunit; source: E. coli (pMAL-c2); not shown: MBP, N-terminal, kept) MSVSELKERHAVATETVNNLRDQLRQRRLQLLDTDVARYSAAQGRTRVSFGATDLVCCRTLQGHTGKVYSLDWTPERNRIVSASQDGRLIVWNALTSQKTHAIKLPCAWVMTCAFSPNGQSVACGGLDSVCSIFSLSSTADKDGTVPVSRMLTGHRGYVSCCQYVPNEDAHLITSSGDQTCILWDVTTGLKTSVFGGEFQSGHTADVLSVSISGSNPNWFISGSCDSTARLWDTRAASRAVRTFHGHEGDVNTVKFFPDGYRFGTGSDDGTCRLYDIRTGHQLQVYQPHGDGENGPVTSIAFSVSGRLLFAGYASNNTCYVWDTLLGEVVLDLGLQQDSHRNRISCLGLSADGSALCTGSWDSNLKIWAFGGHRRVI | binds |
| MBP-AGG1 (natural protein, Arabidopsis, UniProt Q9FDX9 1-98, looked up, AGG1, Arabidopsis G protein gamma subunit 1; also called G protein gamma subunit; source: E. coli (pMAL-c2); not shown: MBP, N-terminal, kept) MREETVVYEQEESVSHGGGKHRILAELARVEQEVAFLEKELKEVENTDIVSTVCEELLSVIEKGPDPLLPLTNGPLNLGWDRWFEGPNGGEGCRCLIL | binds |
| MBP-AGG2 (natural protein, Arabidopsis, UniProt Q93V47 1-100, looked up, AGG2, Arabidopsis G protein gamma subunit 2; also called G protein gamma subunit; source: E. coli (pMAL-c2); not shown: MBP, N-terminal, kept) MEAGSSNSSGQLSGRVVDTRGKHRIQAELKRLEQEARFLEEELEQLEKMDNASASCKEFLDSVDSKPDPLLPETTGPVNATWDQWFEGPKEAKRCGCSIL | binds |
| MBP-AGG3 (natural protein, Arabidopsis, UniProt Q6AWT8 1-251, looked up, AGG3, Arabidopsis G protein gamma subunit 3; also called G protein gamma subunit; source: E. coli (pMAL-c2); not shown: MBP, N-terminal, kept) MSAPSGGGEGGGKESAAGGVSSSSLAPSSLPPPRPKSPPEYPDLYGKRREAARVQMLEREIGFLEGEIKFIEGVQPASRCIKEVSDFVVANSDPLIPAQRKSRRSFRFWKWLCGPCLSLVSFCCCCQSKCSCHLRKPKCCNCTSCSCIGSKCCDGSCCSNICCCPRLSCPSCSCFRGCWCSCPDMSCCIPSCFRSCSCTRPSCLNKKKSSCCSCNCKIRWSSCFSCPKVRLCSCCFCNCKNLCSNPCCLAF | binds |
